From the nanobody polyreactivity screen of Harvey et al. (2022)

test: yeast display, Sf9 membrane polyspecificity reagent, FACS + sequencing; frameworks hold sequencing errors
Outline: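 In a synthetic yeast display library (Saccharomyces cerevisiae BJ5465), nanobody expression was induced with galactose for 36–48 hours. FACS gates were set low and high (top ~1%) using anti-HA fluorescence for expression and streptavidin fluorescence for binding of the Sf9 membrane reagent. Each polyreactivity label is drawn from the gate of origin.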

Question: With “QVQLVESGGGLVQAGGSLRLSSSASGGIFRSYAMGWYRQAPGKERELVATITDRGGSTYYADSVKGRFTISRDNAKNTVYLQMNSLKPEDTAVYYCAAELVNRLWYRVVHFDYWGQGPQVTVSS” as the sequence, how does the “polyreactivity (PSR sort gate)” value read?
Answer: low polyreactivity

Question: For “QVQLVESGGGLVQAGGSLRLSCAASGITFYGYAMGWYRQAPGKERELVAAISKRGGSTYYADSVKGRFTISRDNAKNTVYLQMNSLKPEDTAVYYCNARPGKSQGWRYDYWGQGTQVTVSS”, which “polyreactivity (PSR sort gate)” value is on record?
Answer: high polyreactivity

Question: Which “polyreactivity (PSR sort gate)” value does the source give for “QVQLVESGGGLVQAGGSLRLSCAASGRIFTRYAMGWYRQAPGKERELVAVITRSGGSTYYADSVKGRFTISRDNAKNNVDLQMNSLKPEDTAVYYCAAKYYGEMYYWGQGTQVTVSS” here?
Answer: low polyreactivity

Question: With “QVQLVESGGGLVQAGGSLRLSCSASGNNFESYGMGWYRQAPGKERELVATINTSSGSTNYADSVKGRFTISRDNAKNTVYVQMNSLKPEDTAVYYCAAVFVEQGEDDYWGQGTQVTVSS” as the sequence, how does the “polyreactivity (PSR sort gate)” value read?
Answer: low polyreactivity

Question: Which “polyreactivity (PSR sort gate)” value does the source give for “QVQLEESGGGLVQAGGSLRLIWAASGFIFRTYTMGWYRQAPGKERELVATIDSSGGSTYYADSVKGRFTISRDNAKNTVYLQMNSLKPEDTAVYYCNADLRELSPWYWYSGEMDYWGQGTQVTVSS” here?
Answer: low polyreactivity

Question: Which “polyreactivity (PSR sort gate)” value does the source give for “QVQLVESGGGLVQAGGSLRLSCAASGSTFRFYAMGSYRQAPGKERELVASISRSGGSTYYADSVKGRFTISRDNAKNTVYLQMNSLKPEDTAVYYCAARILYHMDWGQGTQVTVSS” here?
Answer: high polyreactivity

Question: With “QVQLVESGGGLVQAGGSLRLSSAASGITFYFNAMRWYRQATGKVSEFVAAISFSGGGTYYADSVKGRFTISRDNAKITDYLDMNSLKPADTAVYYCNADYGRGTLRSIYDYWGQGTQVTVTS” as the sequence, how does the “polyreactivity (PSR sort gate)” value read?
Answer: low polyreactivity

Question: Which “polyreactivity (PSR sort gate)” value does the source give for “QVQLVESGGGLVQAGGSLRLSCAASGFTFQEYAMGWYRQAPGKERELVAAITSGTTTNYADSVKGRFTISRDNAKNTVYFQMNSLKPEDTAVYYCNVRSQSGSYRVYEYDYWGQGTQVTVSS” here?
Answer: low polyreactivity

Question: With “QVHLVESGGGLVQAGGSLRLSCAASGLTFYSNAMGWYRQAPGKERELVARISTGGSTYADSVKGRFTISRDNAKNTVYLQMNSLKPEDTAVYYCAKLPPRGIDDEYWGQGNQVTVSS” as the sequence, how does the “polyreactivity (PSR sort gate)” value read?
Answer: low polyreactivity

Question: With “QVQLVESGGGLVQAGGSLRLSCAASGFILFPNAMGWYRQAPGKERELVAAITSGGRTNYADSVKGRFTISRDNAKNTVYLQMTSLKPEDTAVYYCAYVGYWWGYDYWGQGTQVTVSS” as the sequence, how does the “polyreactivity (PSR sort gate)” value read?
Answer: low polyreactivity

Question: For “QVQLLESGGGLVQAGGSLRLSCAASGYTFTWYAMGWYRQAPGTEREFVAAISIGGDSTYYADSVKGRFTNSRDNAKNTVYLLMNSLIPEDTAVYYCAADTYPRWILLIGELQVETSYDYWGQGTQVTVSS”, which “polyreactivity (PSR sort gate)” value is on record?
Answer: low polyreactivity

Question: For “QVQLVESGGGLVQAGGSLRLSCAASGSIFSRNAMGWYRQAPGKERELVAAISYSSGSTYYADSVKGRFTLSRDNAKNTVYLQMNSLKPEDTAVYYCAADTTKLQGAEVDFWGQGTQVTVSS”, which “polyreactivity (PSR sort gate)” value is on record?
Answer: low polyreactivity

Question: For “QVQLVESGGGLVQAGGSLRLSSAASGYIFGANGMGWYRQAPGKERELVATITSGGRTYYADSVKGRFTISRDNAKNNVYLQMNSLKPEDTAVYYCAAKLQYRWTWGYYYWGQGTQVTVSS”, which “polyreactivity (PSR sort gate)” value is on record?
Answer: high polyreactivity

Question: For “QVQLVESGGGLLQAGGSLRLSCAASGRTLGIYAMGWYRQAPWKERELVAAITLSGSDTYYADSVKGRFTISRDNAKNTVYLQMNSLKPEDTAVYDCAAKTYGGYGKYGYWGQGTQVTVSS”, which “polyreactivity (PSR sort gate)” value is on record?
Answer: low polyreactivity

Question: With “QVQLVESGGGLVQAGGSLRLSCAASGSTFGRNAMGWYRQAPGKERELVASISSGGSTYYADSVKGRFTISRDNAKNTVYLQMNSLKPEDTAVYYCARRAYQNWYNYWGQGTQVTVSS” as the sequence, how does the “polyreactivity (PSR sort gate)” value read?
Answer: high polyreactivity

Question: With “QVQLVESGGGLVQAGGSLRLSCAASGFIFDDNSMGWYRQAPGTEREFVAAISQGAGSTYYADSVKGRFTISRDTAKNTVNLQMNSLKPEDTAVYYCNNGRPKYWYGYKYDYWGHGTQVTVSS” as the sequence, how does the “polyreactivity (PSR sort gate)” value read?
Answer: low polyreactivity

Question: For “QVQLVESGGGLVQAGVSLRLSCAASGSIFGFNAMGWYRQAPGKEWELVAAINNGGSTNYADSVKGRFTISRDNAKNTVYLQMNSLKPEDTAVYYFAAERWFYRSKFDYWGQGTQVTVSS”, which “polyreactivity (PSR sort gate)” value is on record?
Answer: high polyreactivity

Question: For “QVQLVESGGGLVQAGGSLRLSCAASGSTFKYNTMGWYRQAPGKKGELVAAITISGGTTRYADSVKGRFTISRDNAKNTVYLQMNSLKPEDTAVYYCAARVYTYYYDLHKRYYWGQGTQVTVSS”, which “polyreactivity (PSR sort gate)” value is on record?
Answer: high polyreactivity

Question: With “QVQLEESGGGLVQEGGSLRLSSAASGFTFGKYAMGSYRQAPGKEMEFVASISSSGARTYYADSVKGRFTISRDNAKNTVYLQKNSLKPEDTAVYYCAAAYGRYYYTYDYWGQGTQVTVSS” as the sequence, how does the “polyreactivity (PSR sort gate)” value read?
Answer: high polyreactivity

Question: With “QVQLVESGGGLVQAGGSLRLSCAASGSTFYSYAMGWYRQAPGKERELVAAISWDGGLTYYADSVKGRFTISRDNAKNTVYLQMNSLKPEDNAVYYCAAAYPTYRHYYWGQGTQVTVSS” as the sequence, how does the “polyreactivity (PSR sort gate)” value read?
Answer: low polyreactivity

Question: With “QDQLVVSGGGLVQAGGSLRLSCAAYGFIVRSYDMGWYIQAPGKEREMVAAITSDVNSYYADSVKGRFTISRDNAKNTVYLQMNSLKPEDTAVYYFNADAVVYRDYQDYDYWGQGTQVTVSS” as the sequence, how does the “polyreactivity (PSR sort gate)” value read?
Answer: low polyreactivity

Question: For “QVQLVESGGGLVQAGGSLRLSCASSGLTFELYAMGWYRQAPGKERELVAAITWSGGRTYYADSVKGRFTISRDNAKNTVYLQMNSLKPEDTAVYYCAADVYPGYVGSQEYDYWGQGTQVTVSS”, which “polyreactivity (PSR sort gate)” value is on record?
Answer: low polyreactivity

Question: For “QVQLVESGGGLVQAGGSLLLSCAASGRIFWHNTMGWYRQAPGKERELVAGISVSGGSTYYADSVKGRFTISRDNAMNTVYLKMNSLKPEDTAVYYCAARKVTSWKAHFRFDYWGQGTQVTVSS”, which “polyreactivity (PSR sort gate)” value is on record?
Answer: low polyreactivity

Question: With “QVQLVESGGGLVQAGGSLRLSCAASGSTFVYNAMGWYRQAPGKERELVAAISARTGRTYYADSVKGRFTISRDNAKNTVYLQMNSLKPEDTAVYYCARRYYTGYKNLPYGYWGQGTQVTVSS” as the sequence, how does the “polyreactivity (PSR sort gate)” value read?
Answer: high polyreactivity

Question: With “QVQLVESGGGLVQAGGSLRLSCAASGGTFGKNAMGWYRQAPGKERELVAAITWSGARTFYADSVKGRFTISRDNAKNTVYLQMNSLKPEDTAVYYCGKGGTRFTRYEYWGQGTQVTVSS” as the sequence, how does the “polyreactivity (PSR sort gate)” value read?
Answer: high polyreactivity

Question: With “QVQLVESGGGLVQAGGSLRLSCAASGITFWWYAMGWYRQAPGKERELVAAITGGGSTNYADSVKGRFTISRDNAKNTVYLQMNSLKPEDTAVYYCAATGSPARNWDTVTGYYYWGQGTQVTVSS” as the sequence, how does the “polyreactivity (PSR sort gate)” value read?
Answer: low polyreactivity

Question: With “QVQLVESGGGLVQAGGSLRLSCAASGYTIIQYAMGWYRQAPGKERELVAGMTWSGGSKYADSVKGRFTISRDNAKNTVYLQMNSLNPEDTAVYYCAAVPYSYTYVYLRHYDYWGQGTQVSVSS” as the sequence, how does the “polyreactivity (PSR sort gate)” value read?
Answer: low polyreactivity

Question: Which “polyreactivity (PSR sort gate)” value does the source give for “QVQLVESGGGLVQAGGSLRLSCDASGIIFQYYAMGWYRHAPGKERELVAAISWSGGSTYYADSVKGRFTISRDNAKNTVYLQMNSLKPEDTAVYFCAARSRSFWPYEGDYWGQGTQVTLSS” here?
Answer: low polyreactivity

Question: Which “polyreactivity (PSR sort gate)” value does the source give for “QVQLVESGGGLVKAGGSLRLSCAASGFNFSSYALGWYRPAPGKERELVAAISYSGGSTYYADSVKGRFTISRDNAKNTVYLQMNSLKPEDTAVYYCNKLRGYGLRYIVSLDYWGQGTQVSVSS” here?
Answer: high polyreactivity

Question: With “QVQLVESGGGLVQAGGSLRLSCAASGRIFGYYAMGWYRQAPGKERELVAAITRGGSTNYADSVKGRFTISRDNAKNTVYLQMNSLKPEDTAVYYCNARRYRPGSASYDYWGQGTQVTVSS” as the sequence, how does the “polyreactivity (PSR sort gate)” value read?
Answer: high polyreactivity

Question: With “QVQLVEYWGALVQAGGTLRLSCAASGRIFGTNALAWNRQAPGKERELEATITRGGGNTYYADSVKGRFTISRDKAKYTVYLQMNSLKPEDTAVYYCAAKFHRFAWYSHYDDWGQGSQVTVSS” as the sequence, how does the “polyreactivity (PSR sort gate)” value read?
Answer: low polyreactivity

Question: Which “polyreactivity (PSR sort gate)” value does the source give for “QVQLVESGGGLVQAGGSLRLSCAASGSNLTFYAMGWYRQAPGKERELVAAITWRGGSTYYADSVKGRFTISRDNAKNTVYLQMNSLKPEDTAVYYCAAEQVGYYLNWRDYWGQGTQVTVSS” here?
Answer: high polyreactivity

Question: For “QVQLVESGGGLVQAGGSLRLRCAASGRTFWRYAMGWYRQAPGKEREFVAAISSSGGNTYYADSVKGRFTITRDNANNTVYLQTNSLKPEDTAVYYCAAYYITALGIKDYVRYYWGQGTQVTVSS”, which “polyreactivity (PSR sort gate)” value is on record?
Answer: high polyreactivity

Question: Which “polyreactivity (PSR sort gate)” value does the source give for “QVQLVESGGGLVQAGGSLSLSCAAYGRTFTYYAMGWYRPAPGKERELVAVISSGGRTYYADSVKGRFTISRDNAKITVSFQMNSLKPDDKGVYYCNAASPRYLVEYDFWGQGTQVTVSS” here?
Answer: high polyreactivity

Question: With “QVQLVESGGGLVQAGGSLRLSCAASGSTFGYYAMGWYRQAPGKERELVAVITRSGDRTYYADSVKGRFTISRDNAKNTVYLQMNSLKPEDTGVYYCAARATSAGGVAEYYWGQGTQVTVSS” as the sequence, how does the “polyreactivity (PSR sort gate)” value read?
Answer: high polyreactivity

Question: With “QVQLVESGGGLVQAGGSLRLSCAASGSIFFPYTMGWYRQAPGKERELVAAISERGGDTYYADSVKGRFTISRDNAKNTVYLQMNSLKPEDTAVYDCAAATSPISTSDYWGQGTQVTVSS” as the sequence, how does the “polyreactivity (PSR sort gate)” value read?
Answer: low polyreactivity

Question: For “QVQLVESGGGLVQAGGSLRLSCAASGSTFQYYPMGWYRQAPGKERELVAAISYRGSTYYADSVKGRFTISRDNAKNTVYLQMNRLKPEDTSVYYCAKGGTTWYWSGYRSIYFRYDYWGQGTQVTVSS”, which “polyreactivity (PSR sort gate)” value is on record?
Answer: high polyreactivity

Question: Which “polyreactivity (PSR sort gate)” value does the source give for “QVQLVESGGGLVQAGGSLRLSCAASGSTYWNAMGWYRQAPGKERELVAAITFRGGSTYADSLKGRFTISRDNAKNTVSLQMISLKPEDTAVYYCAKASYHRWYNVRNRAGYDYWGQGTQVTVSS” here?
Answer: high polyreactivity

Question: Which “polyreactivity (PSR sort gate)” value does the source give for “QVQLVESGRGLVQAGGSLRLSCAASGRIFGVYAMGWDRQAPGKERELVAAISGSTTRTYYADSVKGRFTISRDTAKNTVYLQMNSLKPEDTAVYYCAARSYTPSYKMDYWGQGTQVTVSS” here?
Answer: high polyreactivity

Question: Which “polyreactivity (PSR sort gate)” value does the source give for “QVQLVESGGRLVQAGGSLRLSCAASGSIFLAYDMGWYRQAPGKERELVAGITSVGTTYYADSVKGRFTISRDNAKNTVYFQMNSLKPEDTAVYYCAAQLYIRNHFRYASTAAYDMGYWGQGTQVTVSS” here?
Answer: low polyreactivity

Question: For “QVQLVESGGGLVQAGGSLRLSCAASGFTFGINAMGWYRQAPGKERELVAAINQSGDRTYYADSVKGRFTISRDNAKNTVYLQMNSLKPEDTAVYYCAGPSYWGGGRYRYGYWGQGTQVTVSS”, which “polyreactivity (PSR sort gate)” value is on record?
Answer: high polyreactivity

Question: Which “polyreactivity (PSR sort gate)” value does the source give for “QVQLVESGGGLVQAGGSLRLSCAASGSTFQRYAMGWYRQAPGKERELVAAISDGGSTKYADYVKGRFTISRDNAKNTVYLQMNRLKPEDTAVYYCAANYLSRYDYWGQGTQVTVSS” here?
Answer: low polyreactivity

Question: Which “polyreactivity (PSR sort gate)” value does the source give for “QVQLVESVGGLVQAGGSLRLSCAASGRTFGTYAMGWYRQAPGKERELVAAISTRGGRTFYADSVKGRFTISRDNAKNTVYLQMNSLKPEDTAVYYCAKGVFTWGVFRVGIRDDYWGQGTQVTVSS” here?
Answer: high polyreactivity
